Reference: PMC3510508, “Rbg1–Tma46 dimer structure reveals new functional domains and their role in polysome recruitment” (Nucleic Acids Research, 2012)
Residue numbers refer to the chain shown, from its start. Names may count otherwise. Values belong to the molecule of their own block, whether it stands above or below them.

What was measured:
Drg1fl–Lerepo4_220–396 = molecular target: T1, Drg1fl–Lerepo4_220–396 (Homo sapiens, UniProt Q9Y295); experiment: malachite green phosphate release; type: biochemical; conditions: 100 mM KCl, 50 mM Tris pH 7.5, 5 mM MgCl2, 37°C, 1 h, 20 μM protein
T1 construct: gene DRG1; recombinant full-length Drg1 with C-terminal Lerepo4 fragment; with Zinc finger CCCH domain-containing protein 15
T1 sequence (Q9Y295 2-367): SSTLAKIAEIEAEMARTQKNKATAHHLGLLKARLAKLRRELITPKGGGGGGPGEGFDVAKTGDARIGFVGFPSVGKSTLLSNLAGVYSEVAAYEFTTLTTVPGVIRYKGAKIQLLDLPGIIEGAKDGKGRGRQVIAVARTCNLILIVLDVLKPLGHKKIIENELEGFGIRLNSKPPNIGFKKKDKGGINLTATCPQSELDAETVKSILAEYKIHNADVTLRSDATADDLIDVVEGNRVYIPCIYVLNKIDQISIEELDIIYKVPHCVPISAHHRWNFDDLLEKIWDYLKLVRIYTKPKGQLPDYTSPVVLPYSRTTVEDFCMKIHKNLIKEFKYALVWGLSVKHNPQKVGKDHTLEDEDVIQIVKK
T1 sequence (Q8WU90 220-396 partner): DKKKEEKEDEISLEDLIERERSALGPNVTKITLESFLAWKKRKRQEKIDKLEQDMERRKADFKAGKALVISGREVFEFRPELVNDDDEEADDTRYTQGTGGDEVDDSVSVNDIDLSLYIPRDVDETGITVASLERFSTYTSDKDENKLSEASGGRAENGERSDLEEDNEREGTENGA
Description: malachite green phosphate release on Drg1fl–Lerepo4_220–396

Rbg1fl–Tma46_205–345 [1] = molecular target: T2, Rbg1fl–Tma46_205–345 (Saccharomyces cerevisiae, UniProt P39729); experiment: thermal shift assay (Sypro Orange); type: binding; conditions: 150 mM NaCl, 20 mM Tris pH 7.5, 2 mM DTT, ~0.05 mM protein
T2 construct: gene RBG1; 6His-tagged full-length Rbg1 (N-terminal tag) co-expressed in E. coli with Tma46 residues 205-345; heterodimer; with Translation machinery-associated protein 46
T2 sequence (P39729 1-369): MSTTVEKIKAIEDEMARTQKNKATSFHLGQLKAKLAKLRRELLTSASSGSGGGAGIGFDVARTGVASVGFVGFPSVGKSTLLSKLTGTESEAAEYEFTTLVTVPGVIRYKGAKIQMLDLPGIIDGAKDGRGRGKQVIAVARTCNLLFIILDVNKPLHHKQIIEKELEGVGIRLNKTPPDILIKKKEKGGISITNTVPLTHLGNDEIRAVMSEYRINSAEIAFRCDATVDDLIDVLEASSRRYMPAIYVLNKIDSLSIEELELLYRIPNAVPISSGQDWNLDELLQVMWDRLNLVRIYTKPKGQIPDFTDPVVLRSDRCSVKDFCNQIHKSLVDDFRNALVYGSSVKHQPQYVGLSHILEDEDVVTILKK
T2 sequence (Q12000 205-345 partner): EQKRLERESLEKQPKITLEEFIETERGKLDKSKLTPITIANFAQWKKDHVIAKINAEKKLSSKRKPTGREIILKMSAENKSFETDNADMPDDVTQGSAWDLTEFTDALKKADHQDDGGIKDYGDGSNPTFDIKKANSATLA

Rbg1fl–Tma46_205–345 [2] = molecular target: T3, Rbg1fl–Tma46_205–345 (Saccharomyces cerevisiae, UniProt P39729); experiment: malachite green phosphate release; type: biochemical; conditions: 100 mM KCl, 50 mM Tris pH 7.5, 5 mM MgCl2, 37°C, 1 h, 20 μM protein
T3 construct: gene RBG1; 6His-tagged full-length Rbg1 (N-terminal tag) co-expressed in E. coli with Tma46 residues 205-345; heterodimer; with Translation machinery-associated protein 46
T3 sequence (P39729 1-369): T2 sequence (P39729 1-369)
T3 sequence (Q12000 205-345 I241A/F246A partner): T2 sequence (Q12000 205-345 partner) with I37A, F42A
Description: (§1) malachite green phosphate release on Rbg1fl–Tma46_205–345

Rbg1fl–Tma46_205–345 [3] = molecular target: T4, Rbg1fl–Tma46_205–345 (Saccharomyces cerevisiae, UniProt P39729); experiment: malachite green phosphate release; type: biochemical; conditions: 100 mM KCl, 50 mM Tris pH 7.5, 5 mM MgCl2, 37°C, 1 h, 20 μM protein; remark: listed apart in the source
T4 construct: gene RBG1; 6His-tagged full-length Rbg1 (N-terminal tag) co-expressed in E. coli with Tma46 residues 205-345; heterodimer; with Translation machinery-associated protein 46
T4 sequence (P39729 1-369): T2 sequence (P39729 1-369)
T4 sequence (Q12000 205-345 I241A partner): T2 sequence (Q12000 205-345 partner) with I37A
Description: as §1

Rbg1fl–Tma46_205–345 [4] = molecular target: T5, Rbg1fl–Tma46_205–345 (Saccharomyces cerevisiae, UniProt P39729); experiment: malachite green phosphate release; type: biochemical; conditions: 100 mM KCl, 50 mM Tris pH 7.5, 5 mM MgCl2, 37°C, 1 h, 20 μM protein; remark: listed apart in the source
T5 construct: gene RBG1; 6His-tagged full-length Rbg1 (N-terminal tag) co-expressed in E. coli with Tma46 residues 205-345; heterodimer; with Translation machinery-associated protein 46
T5 sequence (P39729 1-369): T2 sequence (P39729 1-369)
T5 sequence (Q12000 205-345 W249A/K250E partner): T2 sequence (Q12000 205-345 partner) with W45A, K46E
Description: as §1

[5] = molecular target: human Drg1 full length (human) (UniProt Q9Y295)
[6] = molecular target: T6, 6His-tagged full-length Rbg1 (yeast) (UniProt P39729)
T6 sequence: T2 sequence (P39729 1-369)

[7] = substrate: Nc1nc2c(ncn2[C@@H]2O[C@H](COP(=O)(O)OP(=O)(O)OP(=O)(O)O)[C@@H](O)[C@H]2O)c(=O)[nH]1; experiment: malachite green phosphate release; type: biochemical, Saccharomyces cerevisiae; conditions: 100 mM KCl, 50 mM Tris pH 7.5, 5 mM MgCl2, 37°C, 1 h, 20 μM protein
[8] = substrate: Nc1nc2c(ncn2[C@@H]2O[C@H](COP(=O)(O)OP(=O)(O)OP(=O)(O)O)[C@@H](O)[C@H]2O)c(=O)[nH]1; experiment: malachite green phosphate release; type: biochemical, Saccharomyces cerevisiae; conditions: 100 mM KCl, 50 mM Tris pH 7.5, 5 mM MgCl2, 37°C, 1 h, 20 μM protein; remark: listed apart in the source
Description: as §1

[9] = substrate: Nc1nc2c(ncn2[C@@H]2O[C@H](COP(=O)(O)OP(=O)(O)OP(=O)(O)O)[C@@H](O)[C@H]2O)c(=O)[nH]1; experiment: malachite green phosphate release; type: biochemical, Saccharomyces cerevisiae; conditions: 100 mM KCl, 50 mM Tris pH 7.5, 5 mM MgCl2, 37°C, 1 h, 20 μM protein; remark: listed apart in the source
Description: malachite green phosphate release on Rbg1fl–Tma46_239–345 (Tma46Δα1)

[10] = substrate: Nc1nc2c(ncn2[C@@H]2O[C@H](COP(=O)(O)OP(=O)(O)OP(=O)(O)O)[C@@H](O)[C@H]2O)c(=O)[nH]1; experiment: malachite green phosphate release; type: biochemical, Saccharomyces cerevisiae; conditions: 100 mM KCl, 50 mM Tris pH 7.5, 5 mM MgCl2, 37°C, 1 h, 20 μM protein; remark: listed apart in the source
Description: malachite green phosphate release on Rbg1_1–294–Tma46_205–345 (ΔTGS)

Km (Drg1fl–Lerepo4_220–396): 319 ± 35 µM | Km (Rbg1fl–Tma46_205–345 [2]): 429 ± 94.7 µM | Km (Rbg1fl–Tma46_205–345 [3]): 186 ± 34.5 µM | Km (Rbg1fl–Tma46_205–345 [4]): 426 ± 52.6 µM
Molecule: Nc1nc2c(ncn2[C@@H]2O[C@H](COP(=O)(O)OP(=O)(O)OP(=O)(O)O)[C@@H](O)[C@H]2O)c(=O)[nH]1 [GTP]
increase in melting temperature (Rbg1fl–Tma46_205–345 [1]; 0.2 mM GTP): increased melting temperature in the presence of the GDP, GTP or non-hydrolysable GTPγS

Molecule: Nc1nc2c(ncn2[C@@H]2O[C@H](COP(=O)(O)OP(=O)(O)OP(O)(O)=S)[C@@H](O)[C@H]2O)c(=O)[nH]1 [GTPγS]
increase in melting temperature (Rbg1fl–Tma46_205–345 [1]; 0.5 mM GTPγS in methods (0.2 mM also stated in Figure 4 legend)): increased melting temperature in the presence of the GDP, GTP or non-hydrolysable GTPγS

Molecule: Nc1nc2c(ncn2[C@@H]2O[C@H](COP(=O)(O)OP(=O)(O)O)[C@@H](O)[C@H]2O)c(=O)[nH]1 [GDP]
increase in melting temperature (Rbg1fl–Tma46_205–345 [1]; 0.2 mM GDP): increased melting temperature in the presence of the GDP, GTP or non-hydrolysable GTPγS

GTP hydrolysis (Malachite green), Vmax of the complex; free Drg1 showed significantly reduced activity (nmol min^−1 mg^−1) [5]: 0.115 | GTP hydrolysis (Malachite green), kcat of the complex [5]: 0.0074 min⁻¹
Molecule: Lerepo4_(220–396) (from UniProt Q8WU90 220-396) (domain or fragment)

GTP hydrolysis (Malachite green), Vmax (nmol min^−1 mg^−1) [6]: 0.0406 | GTP hydrolysis (Malachite green), kcat [6]: 0.0023 min⁻¹
B1: Tma46_(205–345 I241A) (domain or fragment)
chain: T2 sequence (Q12000 205-345 partner) with I37A

GTP hydrolysis (Malachite green), Vmax (nmol min^−1 mg^−1) [6]: 0.0288 | GTP hydrolysis (Malachite green), kcat [6]: 0.0017 min⁻¹
B2: Tma46_(205–345 I241A, F246A) (domain or fragment)
chain: T2 sequence (Q12000 205-345 partner) with I37A, F42A

GTP hydrolysis (Malachite green), Vmax (nmol min^−1 mg^−1) [6]: 0.0345 | GTP hydrolysis (Malachite green), kcat [6]: 0.002 min⁻¹
B3: Tma46_(205–345 W249A K250E) (domain or fragment)
chain: T2 sequence (Q12000 205-345 partner) with W45A, K46E

B4: Rbg1Δ175–243+Gly–Tma46_205–345 (ΔS5D2L) (Saccharomyces cerevisiae S288C; DEL175-243/INS174G) (protein)
chain: MSTTVEKIKAIEDEMARTQKNKATSFHLGQLKAKLAKLRRELLTSASSGSGGGAGIGFDVARTGVASVGFVGFPSVGKSTLLSKLTGTESEAAEYEFTTLVTVPGVIRYKGAKIQMLDLPGIIDGAKDGRGRGKQVIAVARTCNLLFIILDVNKPLHHKQIIEKELEGVGIRLNGPAIYVLNKIDSLSIEELELLYRIPNAVPISSGQDWNLDELLQVMWDRLNLVRIYTKPKGQIPDFTDPVVLRSDRCSVKDFCNQIHKSLVDDFRNALVYGSSVKHQPQYVGLSHILEDEDVVTILKK
notes: 6His-tagged Rbg1 with S5D2L domain (175-243) replaced by one Gly, co-expressed in E. coli with Tma46 205-345; with Translation machinery-associated protein 46
Km [7]: 221.5 ± 159.2 µM | Vmax [7]: 1.57e-05 µmol/min/mg | kcat [7]: 1e-05 s⁻¹

B5: Rbg1fl–Tma46_205–345 (Saccharomyces cerevisiae S288C) (protein)
chain: T2 sequence (P39729 1-369)
notes: 6His-tagged full-length Rbg1 (N-terminal tag) co-expressed in E. coli with Tma46 residues 205-345; heterodimer; with Translation machinery-associated protein 46
Km [8]: 304.1 ± 32.5 µM | Vmax [8]: 5.93e-05 µmol/min/mg | kcat [8]: 5.67e-05 s⁻¹

B6: Rbg1fl–Tma46_239–345 (Tma46Δα1) (Saccharomyces cerevisiae S288C) (protein)
chain: T2 sequence (P39729 1-369)
notes: 6His-tagged full-length Rbg1 with Tma46 residues 239-345 (lacks helix α1), expressed in E. coli; with Translation machinery-associated protein 46
Km [9]: 191.2 ± 26.6 µM | Vmax [9]: 3.7e-05 µmol/min/mg | kcat [9]: 3.33e-05 s⁻¹

B7: Rbg1_1–294–Tma46_205–345 (ΔTGS) (Saccharomyces cerevisiae S288C) (protein)
chain: MSTTVEKIKAIEDEMARTQKNKATSFHLGQLKAKLAKLRRELLTSASSGSGGGAGIGFDVARTGVASVGFVGFPSVGKSTLLSKLTGTESEAAEYEFTTLVTVPGVIRYKGAKIQMLDLPGIIDGAKDGRGRGKQVIAVARTCNLLFIILDVNKPLHHKQIIEKELEGVGIRLNKTPPDILIKKKEKGGISITNTVPLTHLGNDEIRAVMSEYRINSAEIAFRCDATVDDLIDVLEASSRRYMPAIYVLNKIDSLSIEELELLYRIPNAVPISSGQDWNLDELLQVMWDRLNLV
notes: 6His-tagged Rbg1 lacking TGS domain (residues 1-294), co-expressed in E. coli with Tma46 205-345; with Translation machinery-associated protein 46
Km [10]: 426.3 ± 165 µM | Vmax [10]: 1.66e-05 µmol/min/mg | kcat [10]: 1.33e-05 s⁻¹
